Laboratory results: patent EP4595979A1 (SystImmune, Inc., dated 2024)

T1: Trop2 (human, UniProt P09758 27-323)
T1 sequence (looked up): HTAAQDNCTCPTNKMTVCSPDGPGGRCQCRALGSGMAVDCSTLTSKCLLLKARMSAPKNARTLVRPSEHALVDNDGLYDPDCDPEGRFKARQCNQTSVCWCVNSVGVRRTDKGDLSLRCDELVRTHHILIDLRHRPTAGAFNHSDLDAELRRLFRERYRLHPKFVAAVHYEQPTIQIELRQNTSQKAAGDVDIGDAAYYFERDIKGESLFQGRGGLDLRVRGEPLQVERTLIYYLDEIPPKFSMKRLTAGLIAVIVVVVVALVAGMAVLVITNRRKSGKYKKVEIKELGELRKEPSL

B1: ADC-1-1a (antibody, human IgG1, kappa, DAR 7.59)
heavy: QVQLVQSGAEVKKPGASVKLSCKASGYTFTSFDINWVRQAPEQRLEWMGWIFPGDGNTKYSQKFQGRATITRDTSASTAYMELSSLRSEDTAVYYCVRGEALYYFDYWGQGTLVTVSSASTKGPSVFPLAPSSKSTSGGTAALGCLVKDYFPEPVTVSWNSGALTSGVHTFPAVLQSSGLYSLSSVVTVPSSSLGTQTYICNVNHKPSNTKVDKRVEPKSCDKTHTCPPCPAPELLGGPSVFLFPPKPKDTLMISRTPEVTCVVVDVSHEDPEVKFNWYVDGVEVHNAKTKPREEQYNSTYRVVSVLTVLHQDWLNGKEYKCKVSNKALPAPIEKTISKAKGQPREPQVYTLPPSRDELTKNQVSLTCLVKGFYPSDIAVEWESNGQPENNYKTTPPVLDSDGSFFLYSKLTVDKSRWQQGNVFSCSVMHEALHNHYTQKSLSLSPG
light: DIQMTQSPSSLSASVGDRVTITCRASQDINKYLAWYQQKPGKVPKLLIYSTSTLQSGVPSRFSGSGSGTDFTLTISSLQPEDVATYYCLQYDDLFTFGQGTKLEIKRTVAAPSVFIFPPSDEQLKSGTASVVCLLNNFYPREAKVQWKVDNALQSGNSQESVTEQDSKDSTYSLSSTLTLSKADYEKHKVYACEVTHQGLSSPVTKSFNRGEC
modifications: linker-payload LP-1a on a cysteine thiol of the reduced interchain disulfide (general step A); residue not stated; linker-payload LP-1a (auristatin E derivative) on cysteine thiols of the fully reduced interchain disulfides (general step A); residues not stated; average DAR 7.59
B2: ADC-2-1a (antibody, human IgG1, kappa, DAR 7.31)
heavy: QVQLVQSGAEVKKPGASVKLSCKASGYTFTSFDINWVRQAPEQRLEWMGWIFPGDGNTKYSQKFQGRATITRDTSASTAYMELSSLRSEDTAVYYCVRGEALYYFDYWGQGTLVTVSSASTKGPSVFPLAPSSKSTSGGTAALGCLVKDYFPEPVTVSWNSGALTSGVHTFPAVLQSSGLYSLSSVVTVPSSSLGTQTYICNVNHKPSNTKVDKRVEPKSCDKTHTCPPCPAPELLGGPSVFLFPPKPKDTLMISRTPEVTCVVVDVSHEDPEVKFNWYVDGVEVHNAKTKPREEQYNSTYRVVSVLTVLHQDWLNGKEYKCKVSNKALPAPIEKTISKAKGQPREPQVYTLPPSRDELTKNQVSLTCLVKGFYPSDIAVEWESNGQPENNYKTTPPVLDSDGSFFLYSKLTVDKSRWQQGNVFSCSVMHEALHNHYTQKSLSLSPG
light: B1 light
modifications: one linker-payload LP-2a on each light chain, maleimide partly ring-opened; residue not stated; linker-payload LP-2a (MMAE derivative) on cysteine thiols of the fully reduced interchain disulfides (general step A); residues not stated; average DAR 7.31
B3: ADC-C-1a (antibody, human IgG1, kappa, DAR 7.34)
heavy: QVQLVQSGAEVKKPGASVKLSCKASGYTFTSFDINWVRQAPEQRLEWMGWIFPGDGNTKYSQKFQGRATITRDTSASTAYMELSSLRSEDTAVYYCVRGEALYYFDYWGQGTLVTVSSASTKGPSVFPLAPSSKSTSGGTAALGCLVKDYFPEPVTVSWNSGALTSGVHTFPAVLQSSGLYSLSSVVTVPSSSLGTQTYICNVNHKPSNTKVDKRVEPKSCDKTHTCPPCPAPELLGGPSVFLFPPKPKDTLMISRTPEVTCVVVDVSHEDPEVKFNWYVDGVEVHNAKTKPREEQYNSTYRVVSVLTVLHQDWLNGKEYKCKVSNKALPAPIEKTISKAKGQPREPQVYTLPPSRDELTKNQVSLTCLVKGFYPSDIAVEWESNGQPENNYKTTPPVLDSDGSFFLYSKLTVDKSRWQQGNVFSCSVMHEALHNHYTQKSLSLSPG
light: B1 light
modifications: VcMMAE on a cysteine thiol of the reduced interchain disulfide (general step A); residue not stated; VcMMAE (MC-VC-PAB-MMAE) on cysteine thiols of the fully reduced interchain disulfides (general step A); residues not stated; average DAR 7.34
B4: ADC-1-2a (antibody, human IgG1, kappa, DAR 1.79)
heavy: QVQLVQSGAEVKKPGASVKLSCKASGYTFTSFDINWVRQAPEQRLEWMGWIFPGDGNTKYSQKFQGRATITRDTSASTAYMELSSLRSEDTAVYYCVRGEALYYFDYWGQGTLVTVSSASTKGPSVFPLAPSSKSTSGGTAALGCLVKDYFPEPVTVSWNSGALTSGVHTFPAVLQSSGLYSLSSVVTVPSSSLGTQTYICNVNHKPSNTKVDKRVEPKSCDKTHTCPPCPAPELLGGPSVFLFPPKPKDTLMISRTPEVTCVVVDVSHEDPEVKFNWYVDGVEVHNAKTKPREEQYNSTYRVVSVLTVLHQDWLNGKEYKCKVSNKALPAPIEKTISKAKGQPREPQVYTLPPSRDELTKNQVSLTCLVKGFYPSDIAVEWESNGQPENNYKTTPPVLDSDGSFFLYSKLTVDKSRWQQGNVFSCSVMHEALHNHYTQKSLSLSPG
light: DIQMTQSPSSLSASVGDRVTITCRASQDINKYLAWYQQKPGKVPKLLIYSTSTLQSGVPSRFSGSGSGTDFTLTISSLQPEDVATYYCLQYDDLFTFGQGTKLEIKRTVAAPSVFIFPPSDEQLKSGTASVVCLLNNFYPREAKVQWKVDNALQSGNSQESVTEQDSKDSTYSLSSTLTLSKADYEKHKVYACEVTHQGLSSPVCTKSFNRGEC
modifications: linker-payload LP-1a conjugated site-specifically after partial reduction (general step B), average DAR 1.79; chain and residue not stated
B5: ADC-C-2a (antibody, human IgG1, kappa, DAR 1.85)
heavy: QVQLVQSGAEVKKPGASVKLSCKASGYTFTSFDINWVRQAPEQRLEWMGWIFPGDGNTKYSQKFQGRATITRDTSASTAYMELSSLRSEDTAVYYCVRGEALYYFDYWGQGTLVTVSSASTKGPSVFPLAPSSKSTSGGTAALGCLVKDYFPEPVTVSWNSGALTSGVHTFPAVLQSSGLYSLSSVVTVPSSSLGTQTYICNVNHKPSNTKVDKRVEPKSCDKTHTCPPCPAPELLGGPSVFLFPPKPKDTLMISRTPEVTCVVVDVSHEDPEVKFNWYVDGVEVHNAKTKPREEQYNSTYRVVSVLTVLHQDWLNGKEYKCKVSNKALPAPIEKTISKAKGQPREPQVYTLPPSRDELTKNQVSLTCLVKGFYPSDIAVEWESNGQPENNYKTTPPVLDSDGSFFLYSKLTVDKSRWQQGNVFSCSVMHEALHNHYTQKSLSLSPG
light: B4 light
modifications: VcMMAE conjugated site-specifically after partial reduction (general step B), average DAR 1.85; chain and residue not stated
B6: ADC-2-2a (antibody, human IgG1, kappa, DAR 1.81)
heavy: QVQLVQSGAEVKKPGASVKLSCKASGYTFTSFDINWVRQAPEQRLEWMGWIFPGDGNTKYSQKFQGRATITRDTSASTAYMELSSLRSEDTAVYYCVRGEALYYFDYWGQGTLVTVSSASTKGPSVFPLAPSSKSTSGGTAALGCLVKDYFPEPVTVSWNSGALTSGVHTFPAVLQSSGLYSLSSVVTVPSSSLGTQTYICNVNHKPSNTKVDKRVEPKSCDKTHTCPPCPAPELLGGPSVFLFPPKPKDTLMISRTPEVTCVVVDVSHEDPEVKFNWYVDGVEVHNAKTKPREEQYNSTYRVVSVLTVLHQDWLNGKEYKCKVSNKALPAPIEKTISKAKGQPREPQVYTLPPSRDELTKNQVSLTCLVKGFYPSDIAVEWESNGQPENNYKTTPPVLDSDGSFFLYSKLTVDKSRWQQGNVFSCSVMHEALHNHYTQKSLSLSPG
light: B4 light
modifications: linker-payload LP-2a conjugated site-specifically after partial reduction (general step B), average DAR 1.81; chain and residue not stated

Biological target: T1, Trop2
Experiment: cell-based or functional assay

Row | Binder | IC50 (nM), in vitro cytotoxicity (120h), MTS cell viability, A431 cells (Trop2 positive) | IC50 (nM), in vitro cytotoxicity (120h), MTS cell viability, BxPC-3 cells (Trop2 positive) | IC50 (nM), in vitro cytotoxicity (120h), MTS cell viability, NCI-N87 cells (Trop2 positive)
1 | B1 | 0.01 nM | 0.02 nM | 0.36 nM
2 | B2 | 0.005 nM | 0.02 nM | 0.35 nM
3 | B3 | 0.02 nM | 0.04 nM | 0.63 nM
4 | B4 | 0.05 nM | 0.25 nM | 2.6 nM
5 | B5 | 0.32 nM | 0.87 nM | 4.9 nM
6 | B6 | 0.11 nM | 0.46 nM | 4.7 nM
